Measurements reported in article PMC8930179.

Target: B38-CAP
Experiment: SEC

Substance: B38-CAP (enzyme)
- stoichiometry N: 2
